Measurements published in patent US20190100563A1 (UNIVERSITY COURT OF THE UNIVERSITY OF EDINBURGH, published 2019).
Residue numbers refer to the chain shown, from its start. Names and notes keep the numbering of the source.

B1: PspCN (TIGR4 37-179), fragment of PspC (CbpA) of S. pneumoniae strain TIGR4 (other)
chain: ATENEGATQVPTSSNRANESQAEQGEQPKKLDSERDKARKEVEEYVKKIVGESYAKSTKKRHTITVALVNELNNIKNEYLNKIVESTSESQLQILMMESRSKVDEAVSKFEKDSSSSSSSDSSTKPEASDTAKPNKPTEPGEK
notes: not shown: N-terminal hexaHis-SUMO tag used for capture on the NTA chip
B2: SUMO (fusion partner alone) (other, UniProt Q12306 3-98, looked up)
chain: DSEVNQEAKPEVKPEVKPETHINLKVSDGSSEIFFKIKKTTPLRRLMEAFAKRQGKEMDSLRFLYDGIRIQADQTPEDLDMEDNDIIEAHREQIGG
B3: PspC (37-130) (other)
chain: ATENEGSTQAATSSNMAKTEHRKAAKQVVDEYIEKMLREIQLDRRKHTQNVALNIKLSAIKTKYLRELNVLEEKSKDELPSEIKAKLDAAFEKF
B4: PspC (37-120) (other)
chain: ATENEGSTQAATSSNMAKTEHRKAAKQVVDEYIEKMLREIQLDRRKHTQNVALNIKLSAIKTKYLRELNVLEEKSKDELPSEIK
B5: sPspCNR1 (N-terminally hexaHis-SUMO-tagged PspC residues 37-292, strain D39, including the R1 domain) (other)
chain: ATENEGSTQAATSSNMAKTEHRKAAKQVVDEYIEKMLREIQLDRRKHTQNVALNIKLSAIKTKYLRELNVLEEKSKDELPSEIKAKLDAAFEKFKKDTLKPGEKVAEAKKKVEEAKKKAEDQKEEDRRNYPTNTYKTLELEIAEFDVKVKEAELELVKEEAKESRNEGTIKQAKEKVESKKAEATRLENIKTDRKKAEEEAKRKADGKLKEANVATSDQGKPKGRAKRGVPGELATPDKKENDAKSSDSSVGEETL
notes: not shown: N-terminal hexaHis-SUMO tag from the pE-SUMOpro Kan vector
B6: His-SUMO-PspCN-Cys (other)
chain: ATENEGSTQAATSSNMAKTEHRKAAKQVVDEYIEKMLREIQLDRRKHTQNVALNIKLSAIKTKYLRELNVLEEKSKDELPSEIKAKLDAAFEKFKKDTLKPGEKGSGSGSGSGGC
notes: also called PspCN-Cys (as SPR ligand); not shown: N-terminal His-SUMO tag
B7: Human complement factor H purified from plasma (other)
chain: EDCNELPPRRNTEILTGSWSDQTYPEGTQAIYKCRPGYRSLGNVIMVCRKGEWVALNPLRKCQKRPCGHPGDTPFGTFTLTGGNVFEYGVKAVYTCNEGYQLLGEINYRECDTDGWTNDIPICEVVKCLPVTAPENGKIVSSAMEPDREYHFGQAVRFVCNSGYKIEGDEEMHCSDDGFWSKEKPKCVEISCKSPDVINGSPISQKIIYKENERFQYKCNMGYEYSERGDAVCTESGWRPLPSCEEKSCDNPYIPNGDYSPLRIKHRTGDEITYQCRNGFYPATRGNTAKCTSTGWIPAPRCTLKPCDYPDIKHGGLYHENMRRPYFPVAVGKYYSYYCDEHFETPSGSYWDHIHCTQDGWSPAVPCLRKCYFPYLENGYNQNYGRKFVQGKSIDVACHPGYALPKAQTTVTCMENGWSPTPRCIRVKTCSKSSIDIENGFISESQYTYALKEKAKYQCKLGYVTADGETSGSITCGKDGWSAQPTCIKSCDIPVFMNARTKNDFTWFKLNDTLDYECHDGYESNTGSTTGSIVCGYNGWSDLPICYERECELPKIDVHLVPDRKKDQYKVGEVLKFSCKPGFTIVGPNSVQCYHFGLSPDLPICKEQVQSCGPPPELLNGNVKEKTKEEYGHSEVVEYYCNPRFLMKGPNKIQCVDGEWTTLPVCIVEESTCGDIPELEHGWAQLSSPPYYYGDSVEFNCSESFTMIGHRSITCIHGVWTQLPQCVAIDKLKKCKSSNLIILEEHLKNKKEFDHNSNIRYRCRGKEGWIHTVCINGRWDPEVNCSMAQIQLCPPPPQIPNSHNMTTTLNYRDGEKVSVLCQENYLIQEGEEITCKDGRWQSIPLCVEKIPCSQPPQIEHGTINSSRSSQESYAHGTKLSYTCEGGFRISEENETTCYMGKWSSPPQCEGLPCKSPPEISHGVVAHMSDSYQYGEEVTYKCFEGFGIDGPAIAKCLGEKWSHPPSCIKTDCLSLPSFENAIPMGEKKDVYKAGEQVTYTCATYYKMDGASNVTCINSRWTGRPTCRDTSCVNPPTVQNAYIVSRQMSKYPSGERVRYQCRSPYEMFGDEEVMCLNGNWTEPPQCKDSTGKCGPPPPIDNGDITSFPLSVYAPASSVEYQCQNLYQLEGNKRITCRNGQWSEPPKCLHPCVISREIMENYNIALRWTAKQKLYSRTGESVEFVCKRGYRLSSRSHTLRTTCWDGKLEYPTCAKR
notes: also called Plasma CFH; plasma-purified CFH
B8: Recombinant human CFH, wild-type sequence, from Pichia pastoris (other)
chain: B7 chain
notes: also called rCFH; CFH (wt)
B9: rCFH:PspCN complex (other)
chain 1: B7 chain
chain 2: ATENEGSTQAATSSNMAKTEHRKAAKQVVDEYIEKMLREIQLDRRKHTQNVALNIKLSAIKTKYLRELNVLEEKSKDELPSEIKAKLDAAFEKFKKDTLKPGEK
notes: also called CFH (wt):PspCN
B10: Plasma CFH:PspCN complex (other)
chain 1: B7 chain
chain 2: B9 chain 2
notes: also called PspCN:CFH
B11: rCFH-D1119G:PspCN complex (other)
chain 1: B7 chain with D1101G
chain 2: B9 chain 2
notes: also called PspCN:CFH (D1119G)
B12: Recombinant human CFH (D1119G) from Pichia pastoris (other)
chain: B7 chain with D1101G
notes: also called rCFH-D1119G; rCFH (D1119G)
B13: His-SUMO-Cys-PspCN (other)
chain: CGSGSGSGSGGATENEGSTQAATSSNMAKTEHRKAAKQVVDEYIEKMLREIQLDRRKHTQNVALNIKLSAIKTKYLRELNVLEEKSKDELPSEIKAKLDAAFEKFKKDTLKPGEK
notes: also called Cys-PspCN (as SPR ligand); not shown: N-terminal His-SUMO tag
B14: PspC (62-140) (other)
chain: KQVVDEYIEKMLREIQLDRRKHTQNVALNIKLSAIKTKYLRELNVLEEKSKDELPSEIKAKLDAAFEKFKKDTLKPGEK
B15: PspC (37-110) (other)
chain: ATENEGSTQAATSSNMAKTEHRKAAKQVVDEYIEKMLREIQLDRRKHTQNVALNIKLSAIKTKYLRELNVLEEK
B16: PspC (52-140) (other)
chain: MAKTEHRKAAKQVVDEYIEKMLREIQLDRRKHTQNVALNIKLSAIKTKYLRELNVLEEKSKDELPSEIKAKLDAAFEKFKKDTLKPGEK

Key:
[1] = molecular target: Human complement factor H purified from plasma (human) (UniProt P08603); experiment: SPR, immobilised TIGR4 fragment, FH as analyte
[2] = molecular target: Human complement factor H purified from plasma (human) (UniProt P08603); experiment: SPR, TIGR4 fragment on NTA chip, CFH as analyte
[3] = molecular target: Human complement factor H purified from plasma (human) (UniProt P08603); experiment: SPR
[4] = molecular target: Human C3d (plasma-purified) (human) (UniProt P01024); experiment: SPR (Biacore), coupled C3d
[5] = molecular target: Human C3b (plasma-purified) (human) (UniProt P01024); experiment: SPR (Biacore), coupled C3b
[6] = molecular target: B7; experiment: SPR, TIGR4 fragment on NTA chip, CFH as analyte
[7] = molecular target: B7; experiment: SPR
[8] = molecular target: B7; experiment: SPR, same assay as for PspCN (37-140)
[9] = molecular target: B7; experiment: SPR, His-SUMO-PspCN-Cys as ligand, plasma-purified CFH as analyte, kinetic analysis
[10] = molecular target: T1, Human C3b (plasma-purified) (human, UniProt P01024 23-667; P01024 749-1663); experiment: SPR, amine-coupled C3b on C1 chip, equilibrium 1:1 fit
Description: The sensor chip was regenerated by 2×30 s injections of 1 M NaCl. Data were analysed using the Biacore evaluation software and equilibrium affinity parameters were calculated using a 1:1 binding affinity model.
Commercially sources plasma-purified human C3b, C3c and C3d were immobilized using standard amine coupling to different channels of the same C1 SPR chip (Biacore).

[11] = molecular target: T1, Human C3b (plasma-purified); experiment: SPR (Biacore), coupled C3b, TIGR4 experiment
[12] = molecular target: T2, Human C3d (plasma-purified) (human, UniProt P01024 1002-1303); experiment: SPR, immobilised C3d
T2 construct: domain: TED; also called TED of C3b

[13] = molecular target: T1, Human C3b (plasma-purified); experiment: SPR, immobilised C3b
[14] = molecular target: T1, Human C3b (plasma-purified); experiment: SPR, amine-coupled C3b on C1 chip
[15] = molecular target: B7; experiment: SPR, His-SUMO-Cys-PspCN as ligand, plasma-purified CFH as analyte, kinetic analysis
[16] = molecular target: B7; experiment: not stated there (SPR in the examples)
[17] = molecular target: B7; experiment: SPR, immobilised PspC fragment, CFH flowed over

T1 sequence (P01024 23-667 limits assumed, chain 1 of 2): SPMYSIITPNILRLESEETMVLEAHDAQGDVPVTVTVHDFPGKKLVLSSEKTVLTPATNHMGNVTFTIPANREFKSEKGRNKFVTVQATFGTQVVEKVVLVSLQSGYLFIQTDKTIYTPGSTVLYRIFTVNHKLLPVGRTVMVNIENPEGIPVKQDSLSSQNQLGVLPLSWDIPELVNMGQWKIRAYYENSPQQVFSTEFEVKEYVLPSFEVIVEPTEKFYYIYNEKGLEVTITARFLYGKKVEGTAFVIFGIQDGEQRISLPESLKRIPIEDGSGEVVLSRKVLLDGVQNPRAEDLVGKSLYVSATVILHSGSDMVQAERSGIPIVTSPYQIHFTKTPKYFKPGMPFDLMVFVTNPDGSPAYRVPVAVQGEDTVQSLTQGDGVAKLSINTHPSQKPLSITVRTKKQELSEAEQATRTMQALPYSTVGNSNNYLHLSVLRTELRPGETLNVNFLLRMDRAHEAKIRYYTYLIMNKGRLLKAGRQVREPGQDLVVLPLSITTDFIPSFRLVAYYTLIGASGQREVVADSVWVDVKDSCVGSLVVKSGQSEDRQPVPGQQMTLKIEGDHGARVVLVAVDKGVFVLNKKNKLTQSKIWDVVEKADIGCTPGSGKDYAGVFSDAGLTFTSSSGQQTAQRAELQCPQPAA
T1 sequence (P01024 749-1663 limits assumed, chain 2 of 2): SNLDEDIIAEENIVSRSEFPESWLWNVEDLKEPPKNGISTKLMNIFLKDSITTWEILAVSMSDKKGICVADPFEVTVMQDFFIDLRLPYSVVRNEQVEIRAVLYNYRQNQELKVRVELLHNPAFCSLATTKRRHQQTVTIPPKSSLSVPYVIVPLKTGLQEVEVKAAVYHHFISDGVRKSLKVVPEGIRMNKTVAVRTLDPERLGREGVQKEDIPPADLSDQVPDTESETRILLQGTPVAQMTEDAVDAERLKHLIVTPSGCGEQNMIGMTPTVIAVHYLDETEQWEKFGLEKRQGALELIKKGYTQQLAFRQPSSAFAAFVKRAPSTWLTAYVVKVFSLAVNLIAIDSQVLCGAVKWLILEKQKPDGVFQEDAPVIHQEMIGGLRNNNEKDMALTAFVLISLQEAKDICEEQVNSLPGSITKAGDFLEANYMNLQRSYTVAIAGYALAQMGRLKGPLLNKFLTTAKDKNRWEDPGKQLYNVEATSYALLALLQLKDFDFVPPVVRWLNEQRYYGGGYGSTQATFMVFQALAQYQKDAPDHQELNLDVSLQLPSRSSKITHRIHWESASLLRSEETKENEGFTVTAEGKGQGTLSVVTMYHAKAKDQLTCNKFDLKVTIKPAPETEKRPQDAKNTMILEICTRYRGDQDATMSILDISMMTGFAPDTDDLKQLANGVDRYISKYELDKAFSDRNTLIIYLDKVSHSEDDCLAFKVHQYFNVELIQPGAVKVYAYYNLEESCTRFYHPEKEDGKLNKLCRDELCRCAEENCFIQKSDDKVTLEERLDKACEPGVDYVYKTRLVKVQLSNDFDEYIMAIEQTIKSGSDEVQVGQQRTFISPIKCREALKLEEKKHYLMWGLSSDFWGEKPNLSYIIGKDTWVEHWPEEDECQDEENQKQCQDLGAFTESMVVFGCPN
T2 sequence (P01024 1002-1303 limits assumed): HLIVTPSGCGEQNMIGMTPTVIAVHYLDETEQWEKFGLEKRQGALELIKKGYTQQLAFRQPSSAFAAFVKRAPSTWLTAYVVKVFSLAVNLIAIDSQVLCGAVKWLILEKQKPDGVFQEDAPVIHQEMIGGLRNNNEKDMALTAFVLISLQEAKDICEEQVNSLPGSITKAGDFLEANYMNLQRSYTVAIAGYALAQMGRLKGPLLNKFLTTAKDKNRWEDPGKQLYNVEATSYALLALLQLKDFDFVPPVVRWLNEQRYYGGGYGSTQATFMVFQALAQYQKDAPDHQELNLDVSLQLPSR
Human C3d (plasma-purified) (human), sequence (P01024 1002-1303 limits assumed): as above
Human C3b (plasma-purified) (human), sequence (P01024 23-667 limits assumed, chain 1 of 2): as the sequence (P01024 23-667 limits assumed, chain 1 of 2) above
Human C3b (plasma-purified) (human), sequence (P01024 749-1663 limits assumed, chain 2 of 2): as the sequence (P01024 749-1663 limits assumed, chain 2 of 2) above

In the case of “PspCN (TIGR4 68-148), fragment of PspC (CbpA) of S. pneumoniae strain TIGR4”, the Kd [1] is reported as < 0.018 nM, the Kd [2] is reported as < 0.018 nM and the Kd [3] is reported as 0.001 pM.

CFH:TIGR4 (37-179) complex was tested, and the Kd [4] was 1200 nM and the Kd [5] was 280 nM.

In the case of B1, the Kd [6] is reported as < 0.01 nM.

B2: no binding [7].

With B3 the “decrease in binding affinity against PspCN (37-140)” value (“decrease in binding affinity” below) [8] was ≥ 3 orders of magnitude.

With B4 the “decrease in binding affinity” value [8] was ≥ 3 orders of magnitude.

B5: binds [7].

B6 gave a Kd [9] of ~0.0001 nM.

Work on B7 yielded a Kd [10] of 490 nM and a Kd [11] of 550 nM.

B8 gave a Kd [10] of 580 nM.

In the case of B9, the Kd [10] is reported as 160 nM.

With B10 the “fold better binding than intact CFH” value [12] was > 50 fold, the “fold difference in affinity against CFH” value [13] was 4 fold and the “fold better binding than CFH alone” value [14] was 3 fold. For the same molecule, the Kd [10] was 160 nM.

With B11 the Kd [10] was 320 nM.

B12 was tested, and the Kd [10] was 540 nM.

For B13, the Kd [15] was ~0.0001 nM.

B14 gave a Kd [16] of ~0.05 pM.

In the case of B15, the “decrease in binding affinity” value [8] is reported as ≥ 3 orders of magnitude.

B16: binds [17].
